Laboratory results reported in the supplement of paper PMC9170038.

Test system: K4 kissing-loop RNA reporter
Experiment: apparent KD of K4 kissing-loop reporter; higher = weaker reporter binding
Settings: Eterna round: R107
Protocol: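 RNA-MaP round R107: designed RNA switches with theophylline, tryptophan, arginine or FMN aptamers are transcribed on-chip within common flanks. They are titrated with a labelled K4 kissing-loop RNA reporter in RNA-MaP buffer (100 mM Tris pH 7.5, 80 mM KCl, 4 mM MgCl2), without ligand or with the indicated ligand. Median apparent KD per design.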

[1] = input ligand: theophylline 20 uM
[2] = input ligand: tryptophan 2.4 mM
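Also: bound reporter read as fluorescence of individual clusters on recovered sequencing chips by microscopy, with normalized cluster intensities fitted with a binding model.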

Sequence | apparent KD of K4 kissing-loop reporter (input ligand: FMN 200 uM) [nM] | apparent KD of K4 kissing-loop reporter (input ligand: arginine 13.2 mM) [nM] | apparent KD of K4 kissing-loop reporter (input ligand: none) [nM] | apparent KD of K4 kissing-loop reporter [1] [nM] | apparent KD of K4 kissing-loop reporter [2] [nM]
AAAACGCUGUGAAUAACACAGCGAAAUUCGCGAGGACCGGUACGGCCGCCACUCGCUAACUGCGAGUGAUGUUCGAUAAUAAAAU [Mat - Mod of OpenEnded 3 - D3] | 166 | 90.3 | 170 | 161 | 104
AAAACUCAUGGCUUAUAUCCGUGUCUCGAAGGAGCGUACAGCGGUACAGGUAGGUCGCGAGACAUGAGUGAUGUUCAUGUGUAAA [KL-XArg-A6 #analogue] | 109 | 109 | 129 | 169 | 104
AAAACUCCGGGUAGUGAUGUUACCUAGGAUACCAGUAUCGCAACAUACCCUUGGCAGCCUCUUCCUGCUGGCGUCGCUUGGCCUA [theeternabot_exclusion_KL_Theo_A_42] | 95.2 | 80.5 | 90.8 | 91.9 | 75.1
AAAAUAAACCAGUGAUGUUGGUAGCCAGAUACCAGCGACGAAAGUCGCCCUUGGCAGCUGUGGACGUACAAAAUAAGUACGUCCU | 248 | 232 | 268 | 238 | 230
AAAAUAAACCAGUGAUGUUGGUGUCCAGAUACCAGCGAUAAUAAUCGCCCUUGGCAGCUGCGGACGUACAAAAUAAGUACGUCCU [MatMod 11 - Jieux - Same State - Theophylline A] | 482 | 351 | 513 | 294 | 408
AAAAUAAACCAGUGAUGUUGGUGUCCAGAUACCAGCGAUAAUCAUCGCCCUUGGCAGCUGCGGACGUACAAAAUAAGUACGUCCU [MatMod 12 - Jieux - Same State - Theophylline A] | 665 | 475 | 707 | 399 | 567
AAAAUAAACCAGUGAUGUUGGUGUCUGGAUACCAGCGACGAAAGUCGCCCUUGGCAGCUACGGACGUACAAAAUAAGUACGUCCU [MatMod 8 - Jieux - Same State - Theophylline A] | 709 | 487 | 655 | 680 | 561
AAAAUAAAGCAGUCAAUCGGAGUGAUGUUCCGAGGACCGGUACGGCCGCCACUCGAGAGUCCAAAGGACUCAUGGCGAGACUGCA [#SwitchBubble 17 #K4Early] | 97 | 94.8 | 93.2 | 92.6 | 90.1
AAAAUAAAUCAGUGAUGUUGGUGUCCAGAUACCAGCGACGAAAGUCGCCCUUGGCAGCUGUGGACGUACAAAAUAAGUACGUCCU [MatMod 22 - Jieux - Same State - Theophylline A] | 610 | 316 | 611 | 335 | 465
AAAAUAAGCCAGUGAUGUUGGUACCCAGAUACCAGCGACGAAAGUCGCCCUUGGCAGCUGUGGACGUACAAAAUAAGUACGUCCU | 434 | 209 | 315 | 617 | 303
AAAAUAAGCCAGUGAUGUUGGUAGCCAGAUACCAGCGACGAAAGUCGCCCUUGGCAGCUGUGGACGUACAAAAUAAGUACGUCCU | 1010 | 751 | 928 | 711 | 723
AAAAUAAUCCAGUGAUGUUGGUAUCCAGAUACCAGCCACGAAAGUGGCCCUUGGCAGCUGUAGGACGUACAAAUAAGUACGUCCA [#OpenEnded 7 #StaticStem #K4Early] | 361 | 175 | 345 | 486 | 444
AAAAUAAUCCAGUGAUGUUGGUAUCCAGAUACCAGCCAGGAAACUGGCCCUUGGCAGCUGUGGACGUACAAAAUAAGUACGUCCU [#OpenEnded 10 #StaticStem #K4Early] | 481 | 268 | 464 | 611 | 355
AAAAUAAUCCAGUGAUGUUGGUAUGCAGAUACCAGCGACGAAAGUCGCCCUUGGCAGCUGUGGACGUACAAAAUAAGUACGUCCU | 923 | 491 | 933 | 979 | 855
AAAAUAAUCCAGUGAUGUUGGUUUCCAGAUACCAGCGACGAAAGUCGCCCUUGGCAGCUGUGGACGUACAAAAUAAGUACGUCCU | 318 | 362 | 359 | 276 | 300
AAAAUUGCGGUUUUAAGAUCUUUUUGCUUACGAGGACCGGUACGGCCGCCACUCGAGUCAAGUGAUGUUUGAUUUUCUAUUAUUA [JR_ExcTryptoA_Sub015] | 92.4 | 179 | 136 | 189 | 71.6
AAACAACGUGACGAUACCAGCUUACUCGGCAAGCCAGUGAUGUUGGUGAAAAGGAGUCAAAGCCCUUGGCAGCGUCGAAGGUCUG [Georbeer] | 332 | 326 | 427 | 150 | 325
AAACAUUGGUCUGAUACCAGCUUGAUCGGUAAACGAUCUACUGGAGUGAUGUUCCUAAAUAGCCCUUGGCAGCAGACCGAUGAAA [MAT - Same State Theophlline B - Mod of Eli - D6] | 187 | 172 | 177 | 132 | 181
